Data: publication PMC6658569

Tested on: PurR (Escherichia coli K12?)
Test: MST
Conditions: panel assigned by order of figure text (h before i); EMSA: binding buffer 250 mM Tris pH 6.8, 150 mM NaCl, 5 mM EDTA, 10 mM DTT, 50% glycerol; 8% PAGE in 20 mM Tris-borate, 1 mM EDTA pH 8.0, 4 C, 80 V, EB stain …

Substance: kbl promoter (208 bp)
- Kd: 7.11 µM

Substance: glyA promoter (212 bp)
- Kd: 239 µM
